Reference: patent publication US10877024B2, “Methods of determining interferon having direct inhibitory effects on tumors and uses thereof” (SUPERLAB FAR EAST LIMITED, priority 2015, dated 2020)
Read-outs that look alike come from different tables or passages of the source.

Tests used:
lung cancer A549 cells = assay: Cell migration assay across microporous membranes; type: cell-based, human; settings: 10 μg/ml, 24 hr, untreated Mock about 30
Experimental: The cell migration assay was performed using 8 μm cell culture inserts in 24-well plates (Becton-Dickinson Biosciences, NJ, USA). Warm (37° C.) bicarbonate based culture medium without FBS was added to the interior of the inserts and to the bottoms of the wells, and were allowed to rehydrate for 2 hr in humidified tissue culture incubator at 37° C. in 5% CO2. After rehydration, the culture medium was carefully removed. […] In the lower compartment of the 24-well plates were placed 500 μl of complete medium with 10% FBS. After 24 hr at 37° C. under the regular culture conditions, the non-migrated cells in the upper part of the chamber membranes were removed with a cotton swab. The lower part of the culture inserts were fixed with 4% paraformaldehyde and stained with 2% crystal violet. The number of migrated cells on the opposite side of the chamber membranes from where the cells were placed was counted in each of the triplicate wells. Each experiment was repeated at least two times, each time with triplicate wells.

[1] = system: Human Cervical Cancer Hela Xenografts; assay: rSIFN-co on human cervical cancer Hela xenografts in nude mice; type: in vivo; settings: for TV(mm^3, mean ± SD) (D 0): day 0; for % Inhibition / T/C (%) / TV(mm^3, mean ± SD) (D 28): day 28
Experimental: Then 1.5 mm^3 fragments were prepared for s.c. implantation into the animals.

[2] = system: human lung cancer SPC-A4 xenografts; settings: for TV(mm^3, mean ± SD) (D 0): day 0; for % Inhibition / RTV (mean ± SD) / T/C (%) / TV(mm^3, mean ± SD) (D 21): day 21
Experimental: Under sterile conditions, well-grown tumors were cut into 1.5 mm^3 fragments and one such fragment was injected by trocar needle into the right flank of each study animal. […] Individual tumor size (length and width) was measured twice per week with microcalipers. Tumor volume (V) was calculated using the formula: V=(length×width^2)/2. Individual relative tumor volume (RTV) was calculated using the formula: RTV=Vt/V0, where Vt is the tumor volume on the day of measurement and V0 is the tumor volume on the day of first treatment. Therapeutic effect of the test article or control article was expressed in terms of T/C (%), using the formula: T/C (%)=(mean RTV of the treated group/mean RTV of the control group)×100%; and in terms of % Inhibition, using the formula: % Inhibition=100%−T/C %.
The 1.5 mm^3 fragments were then used for s.c. implantation into the test animals. The body weight of the animals averaged 22±2 g at dose initiation.

[3] = system: Human Colon Cancer HT-29 Xenografts; assay: rSIFN-co on human colon cancer HT-29 xenografts in nude mice; type: in vivo; settings: for TV(mm^3, mean ± SD) (D 0): day 0; for % Inhibition / T/C (%) / TV(mm^3, mean ± SD) (D 28): day 28
SW620 tumor cells = assay: Cell viability, MTT assay, 1-6 days; type: cell-based, human; settings: 10 μg/ml
Experimental: The cell survival rate was evaluated in a standard MTT assay [3-(4,5-dimethylthiazol-2-yl)-2,5-diphenyltetrazolium bromide assay, Sigma, St. Louis, Mo.). For the assay, about 20 μl MTT (at 4 mg/ml) was added to each well. The cells were incubated at 37° C. for 4 hr. After that, the supernatant of each well was drawn off carefully and then an equal volume (150 microliter) of dimethyl sulfoxide (DMSO) was added to each well and mixed thoroughly on a shaker for 15 min. The absorbance from the plates was read at 595 nm with a Thermo Scientific Microplate Reader (Thermo Fisher Scientific Inc., Lowell, Mass.). The relative cell viability was calculated as follows: Cell viability=(Treated group(OD595) minus blank(OD595))/(Control group(OD595) minus blank(OD595))×100%.

Lung cancer cells, A549 = assay: Colony and pseudopod formation in three dimensional Matrigel culture; type: cell-based, human; settings: 10 mcg/ml
Experimental: Matrigel (from BD Corporation, Cat #: 356234) was thawed on ice in a 4° C. refrigerator overnight, and a 24-well plate was frozen at −20° C. overnight. Thereafter, each well of the frozen 24-well plate was coated with 150 μl of the Matrigel at 1.0 mg/ml. The Matrigel coated plate was then incubated 37° C. for 20-30 min. Lung cancer cells, A549, were trypsinized and counted. […] The cells were incubated at 37° C. for at least about 8 days. About 200 μl of the above conditioned medium was added every 3 days to prevent the medium from drying. On the 4th or 8th day, photographs were taken to observe the size of the colonies and invasive feet (pseudopod) formation. The experiment was conducted in triplicate.

A549 xenograft tumors = assay: Tumor growth of A549 xenografts in nude mice; type: in vivo, BALB/c nude mice; settings: 100 μg/100 μl per mouse intratumorally, every other day, 12 times; vs PBS
Experimental: This experiment was conducted in accordance to the National Institutes of Health Guide for the Care and Use of Laboratory Animals. Female BALB/c nude mice, 4-5 weeks old, were obtained from Shanghai Experimental Animal Center (Shanghai, China). About 5×10^6 A549 cells were subcutaneously injected into each mouse to establish xenograft tumors. […] The tumors were measured every three (3) days and the tumor volumes were calculated as follows: tumor volume (mm^3)=(length×width^2)/2. Data are shown as Mean±SD (n=8).

different cancer cells = assay: Cell viability, Am-Blue assay, 48 hr, statements over all cell lines; type: cell-based, human; settings: any of the cancer cell lines
Experimental: Cell culture and reagents. human lung cancer cell lines (A549, H1299, H460, Calu-1), human liver cancer cell lines (SMMC-7721, Huh-7, CL-1), human cervical carcinoma cell line (Hela), human breast cancer cell line (MDA-MB-231), human pancreatic cancer cell line (PANC-1) and human colon cancer cell lines (SW620, HT29, SW480) were purchased from the Shanghai Cell Collection (Shanghai, China). The above cell lines were cultured in 5% CO2 at 37° C. in corresponding complete growth medium formulated by the Shanghai Cell Collection, with 10% heat-inactivated fetal bovine serum (Biochrom, Germany), supplemented with 4 mM glutamine, 50 U/ml penicillin and […] streptomycin.
About 5×10^3 cells in 100 μl complete medium per well were plated in 96-well plates, incubated overnight, and then treated with IFN α-2b or rSIFN-co at concentrations of 100 μg/ml, 50 μg/ml, 25 μg/ml, 12.5 μg/ml, 6.25 μg/ml, 3.13 μg/ml, 1.56 μg/ml, 0.78 μg/ml, 0.39 μg/ml, and 0.20 μg/ml, respectively, for about 48 hr, at which time the cells were harvested for analysis. The cell viability rate was evaluated by SunBio Am-Blue assay kit (Cat #: SBAB8025, Shanghai SBO Medical Biotechnology Co., Ltd, Shanghai, China). […] After shaking the plates for 30 seconds, the absorbance for each well was read at both 570 nm and 595 nm by a Thermo Scientific Microplate Reader (Thermon Fisher Scientific, Inc., Lowell, Mass.). […]

[4] = 0.05 mg/mouse i.t. every other day
[5] = 0.10 mg/mouse i.t. every other day
[6] = 0.15 mg/mouse i.t. every other day
[7] = 0.05-0.15 mg/mouse i.t. every other day, 28 days

B1: rSIFN-co: Recombinant super-compound interferon; amino acid sequence SEQ ID NO: 1 (same as INFERGEN), encoded by novel nucleotide sequence SEQ ID NO: 2 (protein)
chain: MCDLPQTHSLGNRRALILLAQMRRISPFSCLKDRHDFGFPQEEFDGNQFQKAQAISVLHEMIQQTFNLFSTKDSSAAWDESLLEKFYTELYQQLNDLEACVIQEVGVEETPLMNVDSILAVKKYFQRITLYLTEKKYSPCAWEVVRAEIMRSFSLSTNLQERLRRKE
modifications: Amino acid sequence of recombinant interferon
Lung cancer A549 cells
  mean number of migrating cells per field: about 10 cells per field
[1]; [4]
  TV(mm^3, mean ± SD) (D 0): 135 ± 26 mm^3
  % Inhibition: 46.67%
  T/C (%): 53.33%
  TV(mm^3, mean ± SD) (D 28): 886 ± 232 mm^3
[1]; [5]
  TV(mm^3, mean ± SD) (D 0): 135 ± 28 mm^3
  % Inhibition: 46.67%
  T/C (%): 53.33%
  TV(mm^3, mean ± SD) (D 28): 865 ± 186 mm^3
[1]; [6]
  TV(mm^3, mean ± SD) (D 0): 136 ± 25 mm^3
  % Inhibition: 40.40%
  T/C (%): 59.60%
  TV(mm^3, mean ± SD) (D 28): 1025 ± 400 mm^3
[1]; [7]
  tolerability, signs of toxicity: tolerated the rSIFN-co treatments with no signs of toxicity
[1]; 28-day treatment period
  change in average body weight: Very little change in average body weight
[2]; [4]
  mortality: one mouse in the 0.05 mg rSIFN-co-treated group died on day 17
  TV(mm^3, mean ± SD) (D 0): 170 ± 41 mm^3
  % Inhibition: 63.68%
  RTV (mean ± SD): 15.45 ± 9.07
  T/C (%): 36.32%
  TV(mm^3, mean ± SD) (D 21): 2244 ± 1043 mm^3
[2]; [5]
  TV(mm^3, mean ± SD) (D 0): 168 ± 49 mm^3
  % Inhibition: 64.95%
  RTV (mean ± SD): 14.91 ± 11.19
  T/C (%): 35.05%
  TV(mm^3, mean ± SD) (D 21): 2388 ± 1544 mm^3
[2]; [6]
  TV(mm^3, mean ± SD) (D 0): 169 ± 40 mm^3
  % Inhibition: 67.75%
  RTV (mean ± SD): 13.72 ± 3.96
  T/C (%): 32.25%
  TV(mm^3, mean ± SD) (D 21): 2284 ± 653 mm^3
[2]; 0.05-0.15 mg/mouse i.t. every other day, 21 days
  tolerability, signs of toxicity or weight loss: no signs of toxicity or weight loss were observed
[3]; [4]
  TV(mm^3, mean ± SD) (D 0): 130 ± 26 mm^3
  % Inhibition: 61%
  T/C (%): 39%
  TV(mm^3, mean ± SD) (D 28): 416 ± 166 mm^3
[3]; [5]
  TV(mm^3, mean ± SD) (D 0): 128 ± 39 mm^3
  % Inhibition: 49.82%
  T/C (%): 50.18%
  TV(mm^3, mean ± SD) (D 28): 541 ± 196 mm^3
[3]; [6]
  TV(mm^3, mean ± SD) (D 0): 131 ± 36 mm^3
  % Inhibition: 46.37%
  T/C (%): 53.63%
  TV(mm^3, mean ± SD) (D 28): 570 ± 144 mm^3
[3]; [7]
  tolerability, signs of drug toxicity, changes in weight: tolerated the tested dosages and showed no signs of drug toxicity and minimal changes in weight
SW620 tumor cells
  cell viability over time (MTT): strongly decreased cell viability of SW620 cells in a time-dependent manner
Lung cancer cells, A549; after 4 days
  size of the colonies: smaller colonies than the untreated group
Lung cancer cells, A549; after 8 days
  invasive feet (pseudopod) formation: almost no extrusive pseudopodium around the cells
  size of the colonies: smallest colonies of the 3 groups
A549 xenograft tumors
  inhibition of tumor growth (tumor volume): almost completely inhibit growth of established tumors
Different cancer cells
  cell viability at 100 mcg/ml: cell viability could not be detected
